Assay results from patent US20220064329A1 (Novo Nordisk, published 2022).

T1: recombinant human activated Factor VII (FVIIa) (human, UniProt P08709 61-212; P08709 213-466, ten glutamate residues of the Gla domain may be gamma-carboxylated)
T1 sequence 1: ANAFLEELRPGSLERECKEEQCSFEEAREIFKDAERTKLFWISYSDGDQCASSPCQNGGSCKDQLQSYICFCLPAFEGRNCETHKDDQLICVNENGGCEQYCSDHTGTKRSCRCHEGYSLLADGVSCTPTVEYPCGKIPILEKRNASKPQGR
T1 sequence 2: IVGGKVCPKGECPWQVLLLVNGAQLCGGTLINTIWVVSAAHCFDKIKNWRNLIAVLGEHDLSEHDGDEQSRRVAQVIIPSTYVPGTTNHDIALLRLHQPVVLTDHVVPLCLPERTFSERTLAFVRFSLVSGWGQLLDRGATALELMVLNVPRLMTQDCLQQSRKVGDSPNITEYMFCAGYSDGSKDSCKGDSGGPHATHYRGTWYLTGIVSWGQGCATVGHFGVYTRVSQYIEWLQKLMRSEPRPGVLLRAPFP

T2: recombinant human activated Factor VII (FVIIa) (human, UniProt P08709 61-212; P08709 213-466, Gla domain: ten glutamate residues may be gamma-carboxylated)
T2 construct: two-chain form after cleavage between Arg152 and Ile153; light chain (Gla, EGF domains) and heavy chain (protease domain) tethered by a disulfide bond; also called rFVIIa; human FVIIa
T2 sequence 1: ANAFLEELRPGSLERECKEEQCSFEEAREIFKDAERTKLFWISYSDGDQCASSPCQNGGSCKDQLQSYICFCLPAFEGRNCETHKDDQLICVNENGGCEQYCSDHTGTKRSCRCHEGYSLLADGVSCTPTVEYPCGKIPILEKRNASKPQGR
T2 sequence 2: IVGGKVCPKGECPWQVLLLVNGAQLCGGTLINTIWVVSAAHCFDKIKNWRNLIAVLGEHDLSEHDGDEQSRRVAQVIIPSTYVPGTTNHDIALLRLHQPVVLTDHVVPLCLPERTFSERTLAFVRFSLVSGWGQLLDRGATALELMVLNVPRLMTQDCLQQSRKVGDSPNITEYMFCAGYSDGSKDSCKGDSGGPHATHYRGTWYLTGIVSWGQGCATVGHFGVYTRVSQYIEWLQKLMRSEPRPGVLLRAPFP

B1: mAb0077(OA) (antibody, human IgG4 S228P, kappa)
heavy: not shown
light: DIVMTQSPATLSVTAGDRVSLSCRASQGISDYLHWYQQKSHESPRLLIKYTSQPVSGIPSRFSGSGSGSEFTLSINSVEPEDVGVYYCQNGHSFPLTFGAGTKLELKRTVAAPSVFIFPPSDEQLKSGTASVVCLLNNFYPREAKVQWKVDNALQSGNSQESVTEQDSKDSTYSLSSTLTLSKADYEKHKVYACEVTHQGLSSPVTKSFNRGEC
chain: VESKYGPPCPPCPAPEFLGGPSVFLFPPKPKDTLMISRTPEVTCVVVDVSQEDPEVQFNWYVDGVEVHNAKTKPREEQFNSTYRVVSVLTVLHQDWLNGKEYKCKVSNKGLPSSIEKTISKAKGQPREPQVYTLPPSQEEMTKNQVSLTCLVKGFYPSDIAVEWESNGQPENNYKTTPPVLDSDGSFLLYSKLTVDKSRWQEGNVFSCSVMHEALHNHYTQKSLSLSLGK
notes: one-armed (OA) antibody, constant domain type E (Duobody); murine VL/VH; also called monovalent 11F2
B2: mAb0120 (antibody, human IgG4 S228P, kappa, V domains shown)
VH: DVQLQESGPGLVEPSQTLSLTCTVSGYSISSDSAWSWIRQFPGKKLEWMGYIQYSGSTNYNPSLKSRVTISRDTSKNQFSLKLSSVTAEDTAVYYCARSVNYYGNSFAVGYWGQGTSVTVSS
VL: EIVLTQSPATLSLSPGERATLSCRASQGISDYLHWYQQKPGEAPRLLIKYTSQPATGIPARFSGSGSGTDFTLTISSLEPEDVGVYYCQNGHSFPLTFGAGTKLELKR
notes: humanized 11F2 variant, first round
B3: mAb0130 (antibody, human IgG4 S228P, kappa, V domains shown)
VH: DVQLQESGPGLVEPSQTLSLTCTVSGYSITSDSAWSWIRQFPGKKLEWMGYIQYSGSTNYNPSLKSRVTISRDTSKNQFSLKLSSVTAEDTAVYYCARSVNYYGNSFAVGYWGQGTSVTVSS
VL: EIVLTQSPATLSLSPGERATLSCRASQGISDYLHWYQQKPGEAPRLLIKYTSQPATGIPARFSGSGSGTDFTLTISSLEPEDFGVYYCQNGHSFPLTFGAGTKLELKR
notes: as for B2
B4: mAb0123 (antibody, human IgG4 S228P, kappa, V domains shown)
VH: DVQLQESGPGLVEPSQTLSLTCTVSGYSITSDSAWSWIRQFPGKKLEWMGYIQYSGSTNYNPSLKSRVTISRDTSKNQFSLKLSSVTAEDTAVYYCARSVNYYGNSFAVGYWGQGTSVTVSS
VL: EIVLTQSPATLSLSPGERATLSCRASQGISSYLHWYQQKPGEAPRLLIKYTSQPATGIPARFSGSGSGTDFTLTISSLEPEDVGVYYCQNGHSFPLTFGAGTKLELKR
notes: as for B2
B5: mAb0126 (antibody, human IgG4 S228P, kappa, V domains shown)
VH: DVQLQESGPGLVEPSQTLSLTCTVSGYSITSDSAWSWIRQFPGKKLEWMGYIQYSGSTNYNPSLKSRVTISRDTSKNQFSLKLSSVTAEDTAVYYCARSVNYYGNSFAVGYWGQGTSVTVSS
VL: EIVLTQSPATLSLSPGERATLSCRASQGVSDYLHWYQQKPGEAPRLLIKYTSQPATGIPARFSGSGSGTDFTLTISSLEPEDVGVYYCQNGHSFPLTFGAGTKLELKR
notes: as for B2
B6: mAb0128 (antibody, human IgG4 S228P, kappa, V domains shown)
VH: DVQLQESGPGLVEPSQTLSLTCTVSGYSITSDSAWSWIRQFPGKKLEWMGYIQYSGSTNYNPSLKSRVTISRDTSKNQFSLKLSSVTAEDTAVYYCARSVNYYGNSFAVGYWGQGTSVTVSS
VL: EIVLTQSPATLSLSAGERATLSCRASQGISDYLHWYQQKSGEAPRLLIKYTSQPATGIPARFSGSGSGTDFTLTISSLEPEDVGVYYCQNGHSFPLTFGAGTKLELKR
notes: as for B2
B7: mAb0125 (antibody, human IgG4 S228P, kappa, V domains shown)
VH: DVQLQESGPGLVEPSQTLSLTCTVSGYSITSDSAWSWIRQFPGKKLEWMGYIQYSGSTNYNPSLKSRVTISRDTSKNQFSLKLSSVTAEDTAVYYCARSVNYYGNSFAVGYWGQGTSVTVSS
VL: EIVLTQSPATLSLSPGERATLSCRASQGISDYLHWYQQKPGEAPRLLIKYTSQPATGIPARFSGSGSGTDFTLTISSLEPEDVAVYYCQNGHSFPLTFGAGTKLELKR
notes: as for B2
B8: mAb0129 (antibody, human IgG4 S228P, kappa, V domains shown)
VH: DVQLQESGPGLVEPSQTLSLTCTVSGYSITSDSAWSWIRQFPGKKLEWMGYIQYSGSTNYNPSLKSRVTISRDTSKNQFSLKLSSVTAEDTAVYYCARSVNYYGNSFAVGYWGQGTSVTVSS
VL: EIVLTQSPATLSLSPGERATLSCRASQGISDYLHWYQQKPGEAPRLLIKYASQPATGIPARFSGSGSGTDFTLTISSLEPEDVGVYYCQNGHSFPLTFGAGTKLELKR
notes: as for B2
B9: mAb0124 (antibody, human IgG4 S228P, kappa, V domains shown)
VH: DVQLQESGPGLVEPSQTLSLTCTVSGYSITSDSAWSWIRQFPGKKLEWMGYIQYSGSTNYNPSLKSRVTISRDTSKNQFSLKLSSVTAEDTAVYYCARSVNYYGNSFAVGYWGQGTSVTVSS
VL: EIVLTQSPATLSLSPGERATLSCRASQGISDYLHWYQQKPGQAPRLLIKYTSQPATGIPARFSGSGSGTDFTLTISSLEPEDVGVYYCQNGHSFPLTFGAGTKLELKR
notes: as for B2
B10: mAb0122 (antibody, human IgG4 S228P, kappa)
heavy: not shown
light: EIVLTQSPATLSLSPGERATLSCRASQGISDYLHWYQQKPGEAPRLLIKYTSQPATGIPARFSGSGSGTDFTLTISSLEPEDVGVYYCQNGHSFPLTFGQGTKLELKRTVAAPSVFIFPPSDEQLKSGTASVVCLLNNFYPREAKVQWKVDNALQSGNSQESVTEQDSKDSTYSLSSTLTLSKADYEKHKVYACEVTHQGLSSPVTKSFNRGEC
notes: as for B2
B11: mAb0121 (antibody, human IgG4 S228P, kappa, V domains shown)
VH: DVQLQESGPGLVEPSQTLSLTCTVSGYSITSDSAWSWIRQFPGKKLEWMGYIQYSGSTNYNPSLKSRVTISRDTSKNQFSLKLSSVTAEDTAVYYCARSVNYYGNSFAVGPWGQGTSVTVSS
VL: EIVLTQSPATLSLSPGERATLSCRASQGISDYLHWYQQKPGEAPRLLIKYTSQPATGIPARFSGSGSGTDFTLTISSLEPEDVGVYYCQNGHSFPLTFGAGTKLELKR
notes: as for B2
B12: biAb0001 (bispecific antibody, human IgG4 S228P, kappa)
heavy 1: QVQLQESGPGLVKPSQTLSLTCTVSGYSISSDSAWSWIRQPPGKGLEWIGYIQYSGSTNYNPSLKSRVTISRDTSKNQFSLKLSSVTAADTAVYYCARSVNYYGNSFAVGYWGQGTLVTVSSASTKGPSVFPLAPCSRSTSESTAALGCLVKDYFPEPVTVSWNSGALTSGVHTFPAVLQSSGLYSLSSVVTVPSSSLGTKTYTCNVDHKPSNTKVDKRVESKYGPPCPPCPAPEFLGGPSVFLFPPKPKDTLMISRTPEVTCVVVDVSQEDPEVQFNWYVDGVEVHNAKTKPREEQFNSTYRVVSVLTVLHQDWLNGKEYKCKVSNKGLPSSIEKTISKAKGQPREPQVYTLPPSQEEMTKNQVSLTCLVKGFYPSDIAVEWESNGQPENNYKTTPPVLDSDGSFLLYSKLTVDKSRWQEGNVFSCSVMHEALHNHYTQKSLSLSLGK
light 1: EIVLTQSPATLSLSPGERATLSCRASQGISDYLHWYQQKPGEAPRLLIKYTSQPATGIPARFSGSGSGTDFTLTISSLEPEDFAVYYCQNGHSFPLTFGQGTKLEIKRTVAAPSVFIFPPSDEQLKSGTASVVCLLNNFYPREAKVQWKVDNALQSGNSQESVTEQDSKDSTYSLSSTLTLSKADYEKHKVYACEVTHQGLSSPVTKSFNRGEC
heavy 2: not shown
light 2: DIVMTQTPLSSPVTLGQPASISCRSSQSLVHRQGNTYFHWLQQRPGQPPRLLIYKVSNRFSGVPDRFSGSGAGTDFTLKISRVEAEDVGVYYCSQSTHVPYTFGQGTKLEIKRTVAAPSVFIFPPSDEQLKSGTASVVCLLNNFYPREAKVQWKVDNALQSGNSQESVTEQDSKDSTYSLSSTLTLSKADYEKHKVYACEVTHQGLSSPVTKSFNRGEC
notes: also called anti-FVII(a)/anti-TLT-1 bispecific antibody of mAb0865 and mAb1076
B13: biAb0245 (bispecific antibody, human IgG4 S228P, kappa)
heavy 1: DVQLQESGPGLVKPSQTLSLTCTVSGYSISSDSAWSWIRQPPGKGLEWIGYIQYSGSTNYNPSLKSRVTISRDTSKNQFSLKLSSVTAADTAVYYCARSVNYYGNSFWVDPWGQGTLVTVSSASTKGPSVFPLAPCSRSTSESTAALGCLVKDYFPEPVTVSWNSGALTSGVHTFPAVLQSSGLYSLSSVVTVPSSSLGTKTYTCNVDHKPSNTKVDKRVESKYGPPCPPCPAPEFLGGPSVFLFPPKPKDTLMISRTPEVTCVVVDVSQEDPEVQFNWYVDGVEVHNAKTKPREEQFNSTYRVVSVLTVLHQDWLNGKEYKCKVSNKGLPSSIEKTISKAKGQPREPQVYTLPPSQEEMTKNQVSLTCLVKGFYPSDIAVEWESNGQPENNYKTTPPVLDSDGSFLLYSKLTVDKSRWQEGNVFSCSVMHEALHNHYTQKSLSLSLGK
light 1: DIVMTQSPATLSVTAGDRVSLSCRASQGISDYLHWYQQKSHESPRLLIKYTSQPVSGIPSRFSGSGSGSEFTLSINSVEPEDVGVYYCQNGHSFPLTFGAGTKLELKRTVAAPSVFIFPPSDEQLKSGTASVVCLLNNFYPREAKVQWKVDNALQSGNSQESVTEQDSKDSTYSLSSTLTLSKADYEKHKVYACEVTHQGLSSPVTKSFNRGEC
heavy 2: not shown
light 2: DIVMTQTPLSSPVTLGQPASISCRSSQSLVHRQGNTYFHWLQQRPGQPPRLLIYKVSNRFSGVPDRFSGSGAGTDFTLKISRVEAEDVGVYYCSQSTHVPYTFGQGTKLEIKRTVAAPSVFIFPPSDEQLKSGTASVVCLLNNFYPREAKVQWKVDNALQSGNSQESVTEQDSKDSTYSLSSTLTLSKADYEKHKVYACEVTHQGLSSPVTKSFNRGEC
notes: also called anti-FVII(a)/anti-TLT-1 bispecific antibody of mAb0873 and mAb1076

Target: T1, recombinant human activated Factor VII …
Experiment: cell-based or functional assay

Row | Binder | AT inhibition (kinh %) [%] | TGT activity (%% FVIIa) [%]
1 | B1 | 119 | 103

Target: T2, recombinant human activated Factor VII …
Experiment: Bio-Layer Interferometry (Fortebio), antibody on anti-human tips, FVIIa 25-200 nM
Procedure: All steps were performed in running buffer (20 mM HEPES buffer (pH 7.4), 150 mM NaCl, 5 mM CaCl2, 0.03% Tween 20, 1 mg/ml IgG-free BSA) at […] Antibodies were captured on anti-human tips (AHC, Fortebio) for 3 min at a concentration of 10 ug/ml. This was followed by a 3 min incubation to establish a baseline. Following this, association was monitored for 3 min using four different concentrations of VIIa (25 nm, 50 nM, 100 nM, and 200 nM), followed by a 3 mi dissociation. Sensorgrams were analysed using Fortebio data analysis software.

Row | Binder | Kd [nM]
2 | B2 | 1.7
3 | B3 | 1.8
4 | B4 | 5.8
5 | B5 | 2.5
6 | B6 | 1.7
7 | B7 | 1.7
8 | B8 | 2.2
9 | B9 | 1.8
10 | B10 | 1.7
11 | B11 | 2

Target: T1, recombinant human activated Factor VII …
Experiment: SPR (Biacore)

Row | Binder | Kd [nM]
12 | B12 | 0.06
13 | B1 | 0.041
14 | B13 | 600
